Each block holds one binder with its values, some of them ahead of it.
How the values were obtained:
[1] = molecular target: T1, Recombinant human rTRAIL receptor 1 (DR4), extracellular part, amino acids 25-239 (human, UniProt O00220 25-239); experiment: ELISA, DR4 coated at 50 ng/well, IgG1 detected with anti-human Fc-HRP
T1 construct: also called rDR4; recombinant DR4
T1 sequence: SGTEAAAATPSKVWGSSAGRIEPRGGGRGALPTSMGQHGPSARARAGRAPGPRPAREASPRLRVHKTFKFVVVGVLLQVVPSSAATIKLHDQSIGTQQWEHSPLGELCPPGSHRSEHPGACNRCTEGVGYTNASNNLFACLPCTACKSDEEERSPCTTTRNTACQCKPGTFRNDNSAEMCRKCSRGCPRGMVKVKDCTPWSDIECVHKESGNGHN
Experimental: To testing binding of recombinant antibodies to DR4 in vitro, DR4 protein was coated onto half-area ELISA plate at 50 ng/well. After blocking with MPBS, different dilutions of antibodies were incubated with coated wells. For detection of binding antibodies, secondary antibody goat anti-Flag tag-HRP and goat anti-human Fc-HRP (both used at 1:1000) were used to detect Fab or IgG. The ELISA signal was developed with substrate ABTS, and read under wavelength 405 nm. […] The mixture was then added to wells for ELISA.

DR5 = molecular target: T2, DR5 (UniProt O14763 56-182, limits assumed); experiment: ELISA
T2 construct: also called TRAIL-R2

EC50 [1]: ~0.01 µM
binding result (DR5): no binding (tested: 1000 nM)
B1: m921 IgG1 (antibody, V domains shown)
VH: QVQLQQSGPGLVKPSQTLSLTCAISGDSVSSNSAAWNWIRQSPSRGLEWLGRTYYRSKWYNDYAVSVKGRITINPDTSKNQFSLQLNSVTPEDTAVYYCARDLGVAAADSYYYYGMDVWGQGTTVTVSS
VL: QPVLTQPPSASATPGQRVTISCSGSSSNIGSNTLDWFQQLPGTAPKLLIFDTNRRPSGVPDRFSGSKSGTSASLAISGLQAEDEAVYFCATWDNSLNGAVFGGGTKLSVPR
notes: also called IgG m921; DR4 IgG m921

EC50 [1]: ~0.01 µM
binding result (DR5): no binding (tested: 1000 nM)
B2: m922 IgG1 (antibody, V domains shown)
VH: QVQLQQSGPGLVKPSQTLSLTCAISGDSVSSNSAAWNWIRQSPSRGLEWLGRTYYRSKWYNDYAVSVKSRITINPDTSKNQFSLQLNSVTPEDTAVYYCARETVAVDAFDIWGQGTMVTVSS
VL: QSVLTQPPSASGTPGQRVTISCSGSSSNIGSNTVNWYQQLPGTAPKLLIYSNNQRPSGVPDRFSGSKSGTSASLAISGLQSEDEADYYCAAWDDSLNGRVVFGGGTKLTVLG
notes: also called IgG m922; DR4 m922 IgG

— patent US20130156781A1 (GOVT OF THE UNITED STATES OF AMERICA H H N I H OFFICE OF …, published 2013)
